These binders were tested against human Fc (human) (assay: ELISA, negative control).

optical density | Binder
0.265 OD | 367_B04 (antibody, V domains shown) VH: EVQLLESGGGLVQPGGSLRLSCAASGFTFDSYSMNWVRQAPGKGLEWVSGINYNSGYKSYADSVKGRFTISRDNSKNTLYLQMNSLRAEDTAVYYCARGANWHDTHLDYWGQGTLVTVSS VL: DIQMTQSPSSLSASVGDRVTITCRASQSILSYLNWYQQKPGKAPKLLIYAATSRASGVPSRFSGSGSGTDFTLTISSLQPEDFATYYCQQSYELPLTFGGGTKVEIK
0.283 OD | 367_D06 (antibody, V domains shown) VH: EVQLLESGGGLVQPGGSLRLSCAASGFTFDSYSMNWVRQAPGKGLEWVAGINYNGGYTSYADSVKGRFTISRDNSKNTLYLQMNSLRAEDTAVYYCARGANWHDTHLDYWGQGTLVTVSS VL: DIQMTQSPSSLSASVGDRVTITCRASQSISTYLNWYQQKPGKAPKLVIYAATSLASGVPSRFSGSGSGTDFTLTISSLQPEDFATYYCQQSYNSPLTFGGGTKVEIK
0.29 OD | 367_D03 (antibody, V domains shown) VH: EVQLLESGGGLVQPGGSLRLSCAASGFTFDSYSMNWVRQAPGKGLEWVSSINYNGGYTGYADSVKGRFTISRDNSKNTLYLQMNSLRAEDTAVYYCARGANWHDTHLDYWGQGTLVTVSS VL: DIQMTQSPSSLSASVGDRVTITCRASQSIITYLNWYQQKPGKAPKLLIYAATSRASGVPSRFSGSGSGTDFTLTISSLQPEDFATYYCQQSYDTPLTFGGGTKVEIK
0.348 OD | 368_A03 (antibody, V domains shown) VH: EVQLLESGGGLVQPGGSLRLSCAASGFTFSSYSMNWVRQAPGKGLEWVSGINYNGGYTGYADSVKGRFTISRDNSKNTLYLQMNSLRAEDTAVYYCARGANWHDTHLDYWGQGTLVTVSS VL: DIQMTQSPSSLSASVGDRVTITCRASQSIISYLNWYQQKPGKAPKLLIYAVTSRASGVPSRFSGSGSGTDFTLTISSLQPEDFATYYCQQSYENPLTFGGGTKVEIK
0.387 OD | 367_C07 (antibody, V domains shown) VH: EVQLLESGGGLVQPGGSLRLSCAASGFTFSSYSMNWVRQAPGKGLEWVSSINYNSGYTGYADSVKGRFTISRDNSKNTLYLQMNSLRAEDTAVYYCARGANWHDTHLDYWGQGTLVTVSS VL: DIQMTQSPSSLSASVGDRVTITCRASQSILTYVNWYQQKPGKAPKLLIYAATSRASGVPSRFSGSGSGTDFTLTISSLQPEDFATYYCQQSYNLPLTFGGGTKVEIK
0.287 OD | 367_G04 (antibody, V domains shown) VH: EVQLLESGGGLVQPGGSLRLSCAASGFTFSSYSMNWVRQAPGKGLEWVAGINYNSGYTSYADSVKGRFTISRDNSKNTLYLQMNSLRAEDTAVYYCARGANWHDTHLDYWGQGTLVTVSS VL: DIQMTQSPSSLSASVGDRVTITCRASQSILSYLNWYQQKPGKAPKLVIYAATSRASGVPSRFSGSGSGTDFTLTISSLQPEDFATYYCQQSYDSPLTFGGGTKVEIK
0.309 OD | 367_D12 (antibody, V domains shown) VH: EVQLLESGGGLVQPGGSLRLSCAASGFTFSSYSMNWVRQAPGKGLEWVSSINYNGGYTGYADSVKGRFTISRDNSKNTLYLQMNSLRAEDTAVYYCARGANWHDTHLDYWGQGTLVTVSS VL: DIQMTQSPSSLSASVGDRVTITCRASQSIVSYVNWYQQKPGKAPKLVIYAATSRASGVPSRFSGSGSGTDFTLTISSLQPEDFATYYCQQSYESPLTFGGGTKVEIK
0.347 OD | 368_E12 (antibody, V domains shown) VH: EVQLLESGGGLVQPGGSLRLSCAASGFTFSDYGMNWVRQAPGKGLEWVAGINYNGGYTSYADSVKGRFTISRDNSKNTLYLQMNSLRAEDTAVYYCARGANWHDTHLDYWGQGTLVTVSS VL: DIQMTQSPSSLSASVGDRVTITCRASQSIVSYVNWYQQKPGKAPKLVIYAVTSRASGVPSRFSGSGSGTDFTLTISSLQPEDFATYYCQQSYDSPLTFGGGTKVEIK
0.333 OD | 367_E05 (antibody, V domains shown) VH: EVQLLESGGGLVQPGGSLRLSCAASGFTFSSYGMNWVRQAPGKGLEWVAGINYNGGYTSYADSVKGRFTISRDNSKNTLYLQMNSLRAEDTAVYYCARGANWHDTHLDYWGQGTLVTVSS VL: DIQMTQSPSSLSASVGDRVTITCRASQSILSYLNWYQQKPGKAPKLLIYAATSRHSGVPSRFSGSGSGTDFTLTISSLQPEDFATYYCQQSYDSPLTFGGGTKVEIK
0.414 OD | 367_B12 (antibody, V domains shown) VH: EVQLLESGGGLVQPGGSLRLSCAASGFTFSSYGMHWVRQAPGKGLEWVASINYNGGYKSYADSVKGRFTISRDNSKNTLYLQMNSLRAEDTAVYYCARGANWHDTHLDYWGQGTLVTVSS VL: DIQMTQSPSSLSASVGDRVTITCRASQSILSYVNWYQQKPGKAPKLVIYAATSLASGVPSRFSGSGSGTDFTLTISSLQPEDFATYYCQQSYDTPLTFGGGTKVEIK
0.258 OD | 368_B09 (antibody, V domains shown) VH: EVQLLESGGGLVQPGGSLRLSCAASGFTFDSYGMNWVRQAPGKGLEWVSNINYNGGYKGYADSVKGRFTISRDNSKNTLYLQMNSLRAEDTAVYYCARGANWHDTHLDYWGQGTLVTVSS VL: DIQMTQSPSSLSASVGDRVTITCRASQSILSYLNWYQQKPGKAPKLLIYAATSRHSGVPSRFSGSGSGTDFTLTISSLQPEDFATYYCQQSYDTPLTFGGGTKVEIK
0.237 OD | 367_D08 (antibody, V domains shown) VH: EVQLLESGGGLVQPGGSLRLSCAASGFTFSDYSMNWVRQAPGKGLEWVAGINYNGGYTSYADSVKGRFTISRDNSKNTLYLQMNSLRAEDTAVYYCARGANWHDTHLDYWGQGTLVTVSS VL: DIQMTQSPSSLSASVGDRVTITCRASQSILSYLNWYQQKPGKAPKLVIYAATSRHSGVPSRFSGSGSGTDFTLTISSLQPEDFATYYCQQSDDLPLTFGGGTKVEIK
0.348 OD | 368_H02 (antibody, V domains shown) VH: EVQLLESGGGLVQPGGSLRLSCAASGFTFSSYGMNWVRQAPGKGLEWVAGINYNSGYTSYADSVKGRFTISRDNSKNTLYLQMNSLRAEDTAVYYCARGANWHDTALDYWGQGTLVTVSS VL: DIQMTQSPSSLSASVGDRVTITCRASQSIVTYLNWYQQKPGKAPKLVIYAATSRASGVPSRFSGSGSGTDFTLTISSLQPEDFATYYCQQSYESPLTFGGGTKVEIK
0.277 OD | 368_H05 (antibody, V domains shown) VH: EVQLLESGGGLVQPGGSLRLSCAASGFTFSSYSMNWVRQAPGKGLEWVANINYNGGYKSYADSVKGRFTISRDNSKNTLYLQMNSLRAEDTAVYYCARGANWHDTHLDYWGQGTLVTVSS VL: DIQMTQSPSSLSASVGDRVTITCRASQSIVSYVNWYQQKPGKAPKLVIYATTSRASGVPSRFSGSGSGTDFTLTISSLQPEDFATYYCQQSYESPLTFGGGTKVEIK
0.242 OD | 368_F09 (antibody, V domains shown) VH: EVQLLESGGGLVQPGGSLRLSCAASGFTFSSYGMNWVRQAPGKGLEWVSGINYNSGYTSYADSVKGRFTISRDNSKNTLYLQMNSLRAEDTAVYYCARGANWHDTHLDYWGQGTLVTVSS VL: DIQMTQSPSSLSASVGDRVTITCRASQSILTYLNWYQQKPGKAPKLLIYAASSLQSGVPSRFSGSGSGTDFTLTISSLQPEDFATYYCQQSYETPLTFGGGTKVEIK
0.341 OD | 366_G06 (antibody, V domains shown) VH: EVQLLESGGGLVQPGGSLRLSCAASGFTFSSYGMHWVRQAPGKGLEWVASINYNGGYTGYADSVKGRFTISRDNSKNTLYLQMNSLRAEDTAVYYCARAANWHDTHLDYWGQGTLVTVSS VL: DIQMTQSPSSLSASVGDRVTITCRASQSIVSYVNWYQQKPGKAPKLVIYAATSRASGVPSRFSGSGSGTDFTLTISSLQPEDFATYYCQQSYDNPLTFGGGTKVEIK
0.288 OD | 369_A07 (antibody, V domains shown) VH: EVQLLESGGGLVQPGGSLRLSCAASGFTFSSYSMNWVRQAPGKGLEWVAGINYNGGYKGYADSVKGRFTISRDNSKNTLYLQMNSLRAEDTAVYYCARGANWHDTALDYWGQGTLVTVSS VL: DIQMTQSPSSLSASVGDRVTITCRASQSILSYLNWYQQKPGKAPKLVIYAATSRASGVPSRFSGSGSGTDFTLTISSLQPEDFATYYCQQSYESPLTFGGGTKVEIK
0.356 OD | 367_G01 (antibody, V domains shown) VH: EVQLLESGGGLVQPGGSLRLSCAASGFTFDSYGMNWVRQAPGKGLEWVASINYNSGYTGYADSVKGRFTISRDNSKNTLYLQMNSLRAEDTAVYYCARGANWHDTHLDYWGQGTLVTVSS VL: DIQMTQSPSSLSASVGDRVTITCRASQSISSYLNWYQQKPGKAPKLVIYAATSRASGVPSRFSGSGSGTDFTLTISSLQPEDFATYYCQQSYDLPLTFGGGTKVEIK
0.233 OD | 367_C10 (antibody, V domains shown) VH: EVQLLESGGGLVQPGGSLRLSCAASGFTFDSYSMNWVRQAPGKGLEWVSGINYNGGYTSYADSVKGRFTISRDNSKNTLYLQMNSLRAEDTAVYYCARGANWHDTALDYWGQGTLVTVSS VL: DIQMTQSPSSLSASVGDRVTITCRASQSIVSYVNWYQQKPGKAPKLLIYAVTSRASGVPSRFSGSGSGTDFTLTISSLQPEDFATYYCQQSYETPLTFGGGTKVEIK
0.28 OD | 366_F10 (antibody, V domains shown) VH: EVQLLESGGGLVQPGGSLRLSCAASGFTFDSYSMNWVRQAPGKGLEWVAGINYNGGYTGYADSVKGRFTISRDNSKNTLYLQMNSLRAEDTAVYYCARAANWHDTHLDYWGQGTLVTVSS VL: DIQMTQSPSSLSASVGDRVTITCRASQSIVSYLNWYQQKPGKAPKLVIYAATSRASGVPSRFSGSGSGTDFTLTISSLQPEDFATYYCQQSYDTPLTFGGGTKVEIK
0.377 OD | 367_H03 (antibody, V domains shown) VH: EVQLLESGGGLVQPGGSLRLSCAASGFTFSSYGMNWVRQAPGKGLEWVAGINYNSGYTSYADSVKGRFTISRDNSKNTLYLQMNSLRAEDTAVYYCARGANWHDTHLDYWGQGTLVTVSS VL: DIQMTQSPSSLSASVGDRVTITCRASQSIITYVNWYQQKPGKAPKLLIYAATSLASGVPSRFSGSGSGTDFTLTISSLQPEDFATYYCQQSYDLPLTFGGGTKVEIK
0.283 OD | 368_A04 (antibody, V domains shown) VH: EVQLLESGGGLVQPGGSLRLSCAASGFTFDDYSMNWVRQAPGKGLEWVAGINYNGGYKSYADSVKGRFTISRDNSKNTLYLQMNSLRAEDTAVYYCARGANWHDTHLDYWGQGTLVTVSS VL: DIQMTQSPSSLSASVGDRVTITCRASQSILTYLNWYQQKPGKAPKLVIYAVTSRASGVPSRFSGSGSGTDFTLTISSLQPEDFATYYCQQSYELPLTFGGGTKVEIK

Reference: US20210380703A1
